Target: recombinant nucleoprotein (NP) protein derived from influenza virus H1N1 to which a Flag tag was fus (influenza virus H1N1)
Sequence (P03466 whole entry): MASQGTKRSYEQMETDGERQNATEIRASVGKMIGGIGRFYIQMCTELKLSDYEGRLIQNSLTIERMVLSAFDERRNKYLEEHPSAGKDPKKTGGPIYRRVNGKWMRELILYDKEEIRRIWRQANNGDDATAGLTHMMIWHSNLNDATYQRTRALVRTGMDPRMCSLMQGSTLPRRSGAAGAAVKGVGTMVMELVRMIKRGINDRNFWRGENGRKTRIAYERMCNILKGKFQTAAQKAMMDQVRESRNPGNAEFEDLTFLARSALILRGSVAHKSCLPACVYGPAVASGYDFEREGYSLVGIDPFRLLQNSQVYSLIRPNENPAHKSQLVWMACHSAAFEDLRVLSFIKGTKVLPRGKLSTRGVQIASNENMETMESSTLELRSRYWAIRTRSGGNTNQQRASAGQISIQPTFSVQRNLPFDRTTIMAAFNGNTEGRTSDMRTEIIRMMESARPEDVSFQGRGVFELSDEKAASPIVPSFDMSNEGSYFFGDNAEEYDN

B1: VHH antibody consisting of the amino acid sequence represented by SEQ ID NO: 8 (VHH)
VHH: QLQLVESGGGLVQAGGSLRLSCAASGSAFSLYAMGWHRQAPGKQRELVAYITNGDITNYADSVQGRVIISRDNAKNTVYLHMNSLKPEDTAVYYCYAVGGRTFWGQGTQVTVSS
Kd: 1.09 nM

Reference: patent US20200165323A1 (PANASONIC INTELLECTUAL PROPERTY MANAGEMENT, published 2020)
